Reference: patent US8257698B2, “Protein engineering of monoacylglycerol lipase (MGLL)” (Janssen Pharmaceutica N.V., priority 2008, dated 2012)

How the values were obtained:
MGLL [1] = experiment: Kinetic analysis: hydrolysis of Coumarin Arachidonate (C-A) by MGLL constructs; assay type: biochemical, human; conditions: estimated; limited by solubility of C-A; read-out: apparent KM for C-A
Description: (§1) A small fluorescent substrate, 4-methyl coumarin butyrate (4MC-B) was used to compare the activity of the engineered mutants to the activity of wt-MGLL (hMGLL 1-303) (SEQ ID NO: 3). The catalytic efficiency (kcat/KM) for the hydrolysis of the 4MC-B was similar for wt-MGLL (hMGLL 1-303) (SEQ ID NO: 3) and all MGLL mutants tested (Table 2). A larger more aliphatic fluorescent substrate, Coumarin Arachidonate (C-A), structurally more closely related to the MGLL natural substrate, 2-AG, was used to compare the activity of wt-MGLL (hMGLL 1-303) (SEQ ID NO: 3) to TEV cleaved mut-MGLL (hMGLL 1-303 L169S, L176S) (SEQ ID NO: 5).
(§2) The Michaelis-Menten parameters for the hydrolysis of 4-methylcoumarin butyrate (4MC-B) and coumarin arachidonate (C-A) substrate were determined using 4-5 nM of MGLL in 20 mM Pipes pH 7 and 150 mM NaCl at 37° C. The change in fluorescence due to substrate hydrolysis was monitored using excitation/emission wavelengths of 335/440 in a Safire II instrument from Tecan. The hyperbolic rates versus substrate concentration curves for the hydrolysis of 4MC-B were fit to the Michaelis-Menten equation using Excel.
The apparent kcat/KM ratio for the hydrolysis of C-A was determined at [S]<<KM. […] The kcat/KM values reported are the average from independent values determined from five substrate concentrations ranging from 700 to 40 nM.

MGLL [2] = experiment: Kinetic analysis: hydrolysis of 4-methyl coumarin butyrate (4MC-B) by MGLL constructs; assay type: biochemical, human; conditions: substrate 4MC-B; 4-5 nM MGLL, 20 mM Pipes pH 7, 150 mM NaCl, 37° C.; average of 2 or 4 separate assays
Description: as §1, §2

[3] = Thermofluor thermal stability (melting transition) of MGLL; assay type: physicochemical; conditions: for Tm (midpoint of the melting transition): 0.05 mg/ml protein, 1,8-ANS
Description: The Thermofluor® assay is a powerful tool to screen for small molecule inhibitors interacting with a protein's active site or allosteric site. The assay detects small changes in the intrinsic melting temperature of proteins based on binding of ligands. Compounds that interact preferentially with the native form of the protein will increase the Tm, the temperature at which half of the protein is unfolded (Pantoliano et al. 2001). The technique monitors changes in the fluorescent intensity of dyes such as 1-anilinonaphthalene-8-sulfonic acid (1,8-ANS). The fluorescent dyes are quenched in aqueous environments but increase in fluorescence on binding to the hydrophobic core of denatured proteins.
Thermofluor® assays were conducted to characterize wt-MGLL (hMGLL 1-303) (SEQ ID NO: 3) and mut-MGLL (hMGLL 1-303 L169S, L176S) and evaluate if the MGLL mutants could be used for high-throughput screening using Thermofluor®. Three microliters of protein at a concentration of 0.05 mg/ml in 50 mM Pipes pH 7, 200 mM NaCl, 100 μM 1,8-ANS, and 0.001% Tween was added to pre-dispensed compound plates. Wells were overlaid with silicone oil (1 μL, Fluka, type DC 200) to prevent evaporation. Final compound concentrations varied from 150 to 0.15 μM. Assay plates were heated at a rate of 1° C./min for all experiments over a temperature range sufficient to measure protein unfolding. Fluorescence was measured by continuous illumination with UV light (Hamamatsu LC6) supplied via fiber optic and filtered through a custom band-pass filter (380-400 nm; >60D cutoff). Fluorescence emission was detected by measuring light intensity using a CCD camera (Sensys, Roper Scientific) filtered to detect emission at 500±25 nm, resulting in simultaneous and independent readings of all 384 wells. One or more images were collected at each temperature, and the sum of the pixel intensity in a given area of the assay plate was recorded vs temperature, and fit to standard equations to yield the Tm.

[4] = Size exclusion chromatography of MGLL purified in the absence of detergent (aggregation/monomer); assay type: physicochemical
Description: A pilot purification of wt-MGLL (hMGLL 1-303) (SEQ ID NO: 3), performed in the complete absence of detergent, generated no protein (data not shown). A second purification of wt-MGLL (hMGLL 1-303) (SEQ ID NO: 3) was done with detergent in the lysis buffer only. Frozen cell pellets for wt-MGLL (hMGLL 1-303) (SEQ ID NO: 3) were thawed, resuspended, and lysed in Bugbuster® lysis buffer for 1 hour at 4° C. Bugbuster® lysis buffer is a proprietary lysis buffer from […] that contains detergent. The lysate was clarified by centrifugation at 40,000×g for 1 hr. No detergent was added at this point or during the rest of the purification. From this point forward, the purification protocol and buffers were the same as described below for mut-MGLL. An average of 2.2 mg of wt-MGLL (hMGLL 1-303) (SEQ ID NO: 3) per liter of cell culture was obtained.
Mutant MGLL (mut-MGLL) constructs were purified in the absence of detergent. Frozen cell pellets were thawed and resuspended in buffer A (50 mM Hepes buffer pH 7.5, 400 mM NaCl, 5% glycerol, 0.05% BME, 1× Complete EDTA-free protease inhibitor cocktail tablets (Roche)), dounce homogenized and mechanically lysed with a microfluidizer processor (Microfluidics). The extract was clarified by centrifugation at 40,000×g for 1 hr. The cleared lysate was loaded on a 1 ml His-Trap FF Crude column (GE-Healthcare) at 4° C. using the AktaXpress system. For larger preparations, a 5 ml His-Trap FF Crude column was used. The column was washed with 10-15 column volumes (CV) of buffer A containing 30 mM imidazole and mut-MGLL was eluted with 5 CV of 50 mM Hepes buffer pH 7.5, 400 mM NaCl, 5% glycerol, 0.05% BME, 400 mM imidazole. In most preparations, 30 mM imidazole was included in Buffer A from the beginning of the preparation to reduce non-specific binding on the His-Trap column. […] Fractions were analysed by SDS-PAGE. […] Purification yields were determined by Bradford assay using the protein assay kit from BioRad according to manufacturer's instruction with BSA as a standard (Bradford 1976).

[5] = Circular dichroism structural analysis; assay type: physicochemical; conditions: 5 μM protein, 10 mM cacodylic acid pH 7, 140 mM NaCl
Description: Circular dichroism experiments were performed on a Circular Dichroism Spectrometer Model 202 from Aviv Instruments Inc. The CD scans of wt-MGLL (hMGLL 1-303) (SEQ ID NO: 3) and TEV cleaved mut-MGLL (hMGLL 1-303 L169S, L176S) (SEQ ID NO: 5) (5 μM protein in 10 mM cacodylic acid pH 7 and 140 mM NaCl) were measured from 200 to 260 nm. Temperature melts were monitored at 210 nm.

[6] = size exclusion, purified in the absence of detergent

Row | Molecule | Km (MGLL [1]) [µM] | Kcat (MGLL [2]) [s⁻¹] | Km (MGLL [2]) [µM] | quality of the melting transition [3] | Tm (midpoint of the melting transition) [3] [°C] | aggregation by size exclusion chromatography (in words) ([4]; detergent in the lysis buffer only) | aggregation [4, 6] [%] | monomer [4, 6] [%] | CD scans 200 to 260 nm compared with wt-MGLL purified in the presence of detergent [5]
1 | CCCCC/C=C/C/C=C\C/C=C/C/C=C/CCCC(=O)Oc1ccc2ccc(=O)oc2c1 [C-A, Coumarin Arachidonate] | > 30 |  |  |  |  |  |  |  | 
2 | wt-MGLL.1-303: wild-type human MGLL isoform 2 amino acids 1-303 with N-terminal His tag and TEV site, SEQ ID NO: 3 (protein, N-terminal His tag and TEV site; Human) MVDHHHHHHENLYFQGMPEESSPRRTPQSIPYQDLPHLVNADGQYLFCRYWKPTGTPKALIFVSHGAGEHSGRYEELARMLMGLDLLVFAHDHVGHGQSEGERMVVSDFHVFVRDVLQHVDSMQKDYPGLPVFLLGHSMGGAIAILTAAERPGHFAGMVLISPLVLANPESATTFKVLAAKVLNLVLPNLSLGPIDSSVLSRNKTEVDIYNSDPLICRAGLKVCFGIQLLNAVSRVERALPKLTVPFLLLQGSADRLCDSKGAYLLMELAKSQDKTLKIYEGAYHVLHKELPEVTNSVFHEINMWVSQRTATAGTASPP |  | 1.13 | 162 | very poor transition | 58 | complete aggregation | 100 |  | 
3 | mut-MGLL. 1-303, L169S, L176S: engineered human MGLL 1-303 with cap-domain mutations L169S, L176S; SEQ ID NO: 4, SEQ ID NO: 5 after TEV cleavage (protein, His tag and TEV site; SEQ ID 5 after TEV cleavage; Human) MVDHHHHHHENLYFQGMPEESSPRRTPQSIPYQDLPHLVNADGQYLFCRYWKPTGTPKALIFVSHGAGEHSGRYEELARMLMGLDLLVFAHDHVGHGQSEGERMVVSDFHVFVRDVLQHVDSMQKDYPGLPVFLLGHSMGGAIAILTAAERPGHFAGMVLISPLVLANPESATTFKVLAAKVLNSVLPNLSSGPIDSSVLSRNKTEVDIYNSDPLICRAGLKVCFGIQLLNAVSRVERALPKLTVPFLLLQGSADRLCDSKGAYLLMELAKSQDKTLKIYEGAYHVLHKELPEVTNSVFHEINMWVSQRTATAGTASPP |  | 0.8 | 136 | strong transition | 56.7 |  |  | 90 | similar
4 | mut-MGLL 1-303, L169S, L176S, K226A: engineered form of human MGLL, cap plus surface mutations (protein) MVDHHHHHHENLYFQGMPEESSPRRTPQSIPYQDLPHLVNADGQYLFCRYWKPTGTPKALIFVSHGAGEHSGRYEELARMLMGLDLLVFAHDHVGHGQSEGERMVVSDFHVFVRDVLQHVDSMQKDYPGLPVFLLGHSMGGAIAILTAAERPGHFAGMVLISPLVLANPESATTFKVLAAKVLNSVLPNLSSGPIDSSVLSRNKTEVDIYNSDPLICRAGLKVCFGIQLLNAVSRVERALPALTVPFLLLQGSADRLCDSKGAYLLMELAKSQDKTLKIYEGAYHVLHKELPEVTNSVFHEINMWVSQRTATAGTASPP |  | 0.633 | 110 |  |  |  |  |  | 
5 | mut-MGLL. 1-303, L169S, L176S, K165A: engineered form of human MGLL, cap plus surface mutations (protein) MVDHHHHHHENLYFQGMPEESSPRRTPQSIPYQDLPHLVNADGQYLFCRYWKPTGTPKALIFVSHGAGEHSGRYEELARMLMGLDLLVFAHDHVGHGQSEGERMVVSDFHVFVRDVLQHVDSMQKDYPGLPVFLLGHSMGGAIAILTAAERPGHFAGMVLISPLVLANPESATTFKVLAAAVLNSVLPNLSSGPIDSSVLSRNKTEVDIYNSDPLICRAGLKVCFGIQLLNAVSRVERALPKLTVPFLLLQGSADRLCDSKGAYLLMELAKSQDKTLKIYEGAYHVLHKELPEVTNSVFHEINMWVSQRTATAGTASPP |  | 0.45 | 137 |  |  |  |  |  | 
6 | mut-MGLL 1-303, L169S, L176S, K36A, K226A: engineered form of human MGLL, cap plus surface mutations (protein) MVDHHHHHHENLYFQGMPEESSPRRTPQSIPYQDLPHLVNADGQYLFCRYWAPTGTPKALIFVSHGAGEHSGRYEELARMLMGLDLLVFAHDHVGHGQSEGERMVVSDFHVFVRDVLQHVDSMQKDYPGLPVFLLGHSMGGAIAILTAAERPGHFAGMVLISPLVLANPESATTFKVLAAKVLNSVLPNLSSGPIDSSVLSRNKTEVDIYNSDPLICRAGLKVCFGIQLLNAVSRVERALPALTVPFLLLQGSADRLCDSKGAYLLMELAKSQDKTLKIYEGAYHVLHKELPEVTNSVFHEINMWVSQRTATAGTASPP |  | 0.5 | 123 |  |  |  |  |  | 
